Measurements: paper PMC12435366, “Maleic anhydride derived diphosphines: adaptable chelators for receptor-targeted ^99mTc, ^64Cu and ^188Re radiotracers” (Chemical Science, 2025)

Assay: Stability of radiotracers in PBS / kit-based reaction solution
Format: physicochemical
Details: ^99mTc and ^188Re radiotracers; radio-HPLC
Method: The new radiotracers, [^64Cu(DP^An-PSMAt)2]^+ and [^64Cu(DP^MEP-PSMAt)2]^+, were purified using reverse-phase HPLC, reformulated in aqueous PBS (phosphate buffered saline) solution, and incubated with human serum at 37 °C. […] Both ^64Cu radiotracers were also stable in aqueous PBS solution (see SI).
Both [^99mTcO2(DP^An-PSMAt)2]^+ and [^99mTcO2(DP^MEP-PSMAt)2]^+, prepared using kits, were incubated at 37 °C in human serum for up to 24 h. […] [^188ReO2(DP^An-PSMAt)2]^+ and [^188ReO2(DP^MEP-PSMAt)2]^+, prepared using kits and then isolated using reverse-phase HPLC in >98% radiochemical purity, were also incubated in human serum under the same conditions. […] These ^99mTc and ^188Re radiotracers were also stable when left to stand in kit-based reaction solutions, or in PBS solution (see SI for full chromatograms).
64Cu: A solution of either [ 64Cu(DPAn-PSMAt)2]+ or [64Cu(DPMEP-PSMAt)2]+ (purified, >98% RCP, 0.6– 0.8 MBq in 8–20 µL PBS) was diluted with PBS (350 µL total volume) and incubated at 37 °C. After 24 h, the sample was analysed by analytical C18 radio-HPLC (Method 2). […]
Each aliquot was treated with an equal amount of ice -cold MeCN to precipitate serum proteins and centrifuged (10,000 rpm, 10 min). The supernatant was isolated, MeCN evaporated under a stream of N2, and the resultant solution analysed by analytical C18 radio-HPLC (Method 2). […]

| SMILES | stability when left to stand in kit-based reaction solutions, or in PBS solution |
| --- | --- |
| COc1ccc(P(/C(C(=O)O)=C(/C(=O)NCCOCCOCCOCCOCCC(=O)NCCCC[C@H](NC(=O)N[C@@H](CCC(=O)O)C(=O)O)C(=O)O)P(c2ccc(OC)cc2)c2ccc(OC)cc2)c2ccc(OC)cc2)cc1 [[^99mTcO2(DP^An-PSMAt)2]^+, metal not drawn] | stable |
| COCCOc1ccc(P(/C(C(=O)O)=C(/C(=O)NCCOCCOCCOCCOCCC(=O)NCCCC[C@H](NC(=O)N[C@@H](CCC(=O)O)C(=O)O)C(=O)O)P(c2ccc(OCCOC)cc2)c2ccc(OCCOC)cc2)c2ccc(OCCOC)cc2)cc1 [[^99mTcO2(DP^MEP-PSMAt)2]^+, metal not drawn] | stable |
